Where two headings read alike, the source gives them in different places.
Tested on: prepubertal children with achondroplasia
Description: The study enrolled a minimum of 60 male and female prepubertal children with ACH aged 2 to 10 years old. The clinical trial is listed on www.clinicaltrials.gov under the ClinicalTrials.gov Identifier: NCT04085523. The objectives of the study were as follow:
This trial is a multicenter trial consisting of two treatment periods.
Participants should rest for at least 5 minutes before vital sign measurement and vital signs should be taken prior to any blood draws. The following vital signs should be measured: • Heart Rate (measured in beats per minute) • Blood Pressure (seated BP will be taken measured in mm Hg) • Temperature [measured in degrees Celsius (° C.) or Fahrenheit (° F.)]
All vital signs above must be measured at all visits. […] Orthostatic hypotension is defined as decrease in SBP of ≥20 mmHg (Stewart et al., Pediatrics, 141, 1-13, 2018). Accompanying tachycardia is defined as change of heart rate increment of ≥40 bpm and absolute orthostatic HR≥130 bpm (for ages 13 years and younger) (Singer et al., Journal of Pediatrics, 160, 222-226, 2012). Additionally, at Visit 1 and Visit 7 (in the Open-Label Extension Period), all vital signs must be monitored at 1 hour and 2 hours post injection of the study drug.

## Navepegritide [Compound (1)]
6 μg/kg/week (n = 10)
  Serious TEAE: 1 (10.0)
  Subject with Treatment-Emergent Adverse Events (TEAE): 9 (90.0)
  Subjects with at Least One Treatment-Related TEAE: 3 (30.0)
  TEAE Grade 1: 9 (90.0)
  TEAE Grade 2: 3 (30.0)
  Treatment-Related TEAE: 3 (30.0)
  Treatment-related: Abdominal pain upper: 0
  Treatment-related: Dizziness: 0
  Treatment-related: Injection site reaction: 2 (20.0)
  Treatment-related: Overdose: 0
  Treatment-related: Sleep terror: 0
  Treatment-related: Urticaria: 1 (10.0)
6 μg/kg/week (n = 10), placebo 9 (60.0)
  Achondroplasia-Related TEAE: 3 (30.0)
20 μg/kg/week (n = 11)
  Achondroplasia-Related TEAE: 4 (36.4)
  Serious TEAE: 0
  Subject with Treatment-Emergent Adverse Events (TEAE): 11 (100.0)
  Subjects with at Least One Treatment-Related TEAE: 2 (18.2)
  TEAE Grade 1: 11 (100.0)
  TEAE Grade 2: 3 (27.3)
  Treatment-Related TEAE: 2 (18.2)
  Treatment-related: Abdominal pain upper: 1 (9.1)
  Treatment-related: Dizziness: 0
  Treatment-related: Injection site reaction: 1 (9.1)
  Treatment-related: Overdose: 0
  Treatment-related: Sleep terror: 0
  Treatment-related: Urticaria: 0
50 μg/kg/week (n = 10)
  Achondroplasia-Related TEAE: 5 (50.0)
  Serious TEAE: 1 (10.0)
  Subject with Treatment-Emergent Adverse Events (TEAE): 10 (100.0)
  Subjects with at Least One Treatment-Related TEAE: 3 (30.0)
  TEAE Grade 1: 10 (100.0)
  TEAE Grade 2: 3 (30.0)
  Treatment-Related TEAE: 3 (30.0)
  Treatment-related: Abdominal pain upper: 0
  Treatment-related: Dizziness: 0
  Treatment-related: Injection site reaction: 3 (30.0)
  Treatment-related: Overdose: 0
  Treatment-related: Sleep terror: 0
  Treatment-related: Urticaria: 0
100 μg/kg/week (n = 11)
  Achondroplasia-Related TEAE: 1 (9.1)
  Serious TEAE: 0
  Subject with Treatment-Emergent Adverse Events (TEAE): 10 (90.9)
  Subjects with at Least One Treatment-Related TEAE: 2 (18.2)
  TEAE Grade 1: 9 (81.8)
  TEAE Grade 2: 1 (9.1)

— patent US20260263563A1, “Method of Treatment of a Thoracolumbar Deformity in a Human Subject with Achondroplasia” (Ascendis Pharma Growth Disorders A/S, priority 2023, published 2026)
